In PMC11377297, “Mechanical disengagement of the cohesin ring” (Nature Structural & Molecular Biology, 2023):

Biological target: T1, Smc1^Psm1-SNAP subunit of the fission yeast cohesin tetramer (head-tagged variant, TMR-labelled) (fission yeast, UniProt O94383 1-1228, TMR fluorophore on the SNAP-tag)
T1 construct: Psm1 (Smc1), fission yeast cohesin subunit; source: recombinant, purified as part of the cohesin tetramer; not shown: SNAP-tag, C-terminal, kept
T1 sequence (looked up): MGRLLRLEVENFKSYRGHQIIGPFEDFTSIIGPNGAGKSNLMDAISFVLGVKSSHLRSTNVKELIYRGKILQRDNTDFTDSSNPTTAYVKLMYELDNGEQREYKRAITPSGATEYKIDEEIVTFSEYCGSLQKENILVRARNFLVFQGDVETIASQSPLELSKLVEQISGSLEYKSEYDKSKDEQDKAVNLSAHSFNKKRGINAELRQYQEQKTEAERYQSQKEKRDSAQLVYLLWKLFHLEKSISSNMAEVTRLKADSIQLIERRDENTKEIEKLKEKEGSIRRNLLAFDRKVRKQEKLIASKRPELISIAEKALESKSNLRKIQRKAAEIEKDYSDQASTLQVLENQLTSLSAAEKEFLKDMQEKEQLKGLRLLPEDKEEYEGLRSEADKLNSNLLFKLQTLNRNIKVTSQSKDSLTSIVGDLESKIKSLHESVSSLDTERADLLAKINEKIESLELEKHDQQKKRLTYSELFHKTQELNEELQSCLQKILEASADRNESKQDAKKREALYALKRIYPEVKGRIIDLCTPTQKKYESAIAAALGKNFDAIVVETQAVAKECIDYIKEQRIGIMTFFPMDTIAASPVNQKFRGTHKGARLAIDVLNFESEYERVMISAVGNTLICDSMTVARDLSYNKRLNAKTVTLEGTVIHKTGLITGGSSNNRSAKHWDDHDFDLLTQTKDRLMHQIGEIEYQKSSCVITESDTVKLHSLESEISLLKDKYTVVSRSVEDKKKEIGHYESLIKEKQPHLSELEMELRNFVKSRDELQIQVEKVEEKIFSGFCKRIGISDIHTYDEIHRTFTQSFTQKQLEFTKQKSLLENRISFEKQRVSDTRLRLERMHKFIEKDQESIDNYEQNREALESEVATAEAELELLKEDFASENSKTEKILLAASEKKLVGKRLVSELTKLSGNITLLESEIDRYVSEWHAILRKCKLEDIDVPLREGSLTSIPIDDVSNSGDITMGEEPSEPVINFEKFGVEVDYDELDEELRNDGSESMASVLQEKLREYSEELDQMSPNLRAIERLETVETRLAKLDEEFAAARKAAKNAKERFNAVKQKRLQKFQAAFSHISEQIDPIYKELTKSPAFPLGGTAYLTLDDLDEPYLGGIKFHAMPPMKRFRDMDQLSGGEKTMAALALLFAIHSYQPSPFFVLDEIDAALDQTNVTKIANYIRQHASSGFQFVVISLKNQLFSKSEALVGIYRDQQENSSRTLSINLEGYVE
Test: co-purification of the recombinant complex (SDS-PAGE, Coomassie); purified cohesin complex resolved by SDS-PAGE; purification methods in the Supplementary Information

B1: Smc3^Psm3-CLIP-biotin subunit of the fission yeast cohesin tetramer (head-tagged variant) (natural protein, UniProt O42649 1-1194, looked up)
chain: MYITKIVIQGFKSYKDYTVIEPLSPHHNVIVGRNGSGKSNFFAAIRFVLSDAYTHLSREERQALLHEGPGATVMSAYVEVTFANADNRFPTGKSEVVLRRTIGLKKDEYSLDKKTVSKTEVINLLESAGFSRSNPYYIVPQGRVTSLTNAKDSERLELLKEVAGTQIYENRRAESNKIMDETIQKSEKIDELLQYIEERLRELEEEKNDLAVYHKKDNERRCLEYAIYSREHDEINSVLDALEQDRIAALERNDDDSGAFIQREERIERIKAEITELNHSLELLRVEKQQNDEDYTNIMKSKVALELQSSQLSRQIEFSKKDESSKLNILSELESKISEKENELSEILPKYNAIVSEADDLNKRIMLLKNQKQSLLDKQSRTSQFTTKKERDEWIRNQLLQINRNINSTKENSDYLKTEYDEMENELKAKLSRKKEIEISLESQGDRMSQLLANITSINERKENLTDKRKSLWREEAKLKSSIENVKDDLSRSEKALGTTMDRNTSNGIRAVKDIAERLKLEGYYGPLCELFKVDNRFKVAVEATAGNSLFHIVVDNDETATQILDVIYKENAGRVTFMPLNKLRPKAVTYPDASDALPLIQYLEFDPKFDAAIKQVFSKTIVCPSIETASQYARSHQLNGITLSGDRSDKKGALTAGYRDYRNSRLDAIKNVKTYQIKFSDLQESLEKCRSEIESFDQKITACLDDLQKAQLSLKQFERDHIPLKDELVTITGETTDLQESMHHKSRMLELVVLELHTLEQQANDLKSELSSEMDELDPKDVEALKSLSGQIENLSHEFDAIIKERAHIEARKTALEYELNTNLYLRRNPLKAEIGSDNRIDESELNSVKRSLLKYENKLQIIKSSSSGLEEQMQRINSEISDKRNELESLEELQHEVATRIEQDAKINERNAAKRSLLLARKKECNEKIKSLGVLPEEAFIKYVSTSSNAIVKKLHKINEALKDYGSVNKKAYEQFNNFTKQRDSLLARREELRRSQESISELTTVLDQRKDEAIERTFKQVAKSFSEIFVKLVPAGRGELVMNRRSELSQSIEQDISMDIDTPSQKSSIDNYTGISIRVSFNSKDDEQLNINQLSGGQKSLCALTLIFAIQRCDPAPFNILDECDANLDAQYRSAIAAMVKEMSKTSQFICTTFRPEMVKVADNFYGVMFNHKVSTVESISKEEAMAFVEG
modifications: biotin on the CLIP-tag
notes: Psm3 (Smc3), fission yeast cohesin subunit; source: recombinant, purified as part of the cohesin tetramer; not shown: CLIP-tag, C-terminal, kept
B1: binds.
